Reference: PMC5510004, “Recruitment and positioning determine the specific role of the XPF‐ERCC1 endonuclease in interstrand crosslink repair”

How the values were obtained:
[1] = target: T1, XPF deltaNSGW;ERCC1 wild type (hsERCC1) (Xenopus laevis;Homo sapiens?, UniProt A0A8J0PXV9;P07992 1-897;1-297, del312-315|); assay: fluorescence anisotropy; 2 mM Ca2+; comparable to wild type; 25 mM Hepes pH 8.0, 15% glycerol, 0.1 mg/ml BSA, 2 mM CaCl2, 10 nM DNA, 1 h at room temperature; settings: protein: recombinant;recombinant; tags: FLAG;His; copies: 1;1; label: 5'-FAM on F1; three strands 1:1:1
T1 sequence 1: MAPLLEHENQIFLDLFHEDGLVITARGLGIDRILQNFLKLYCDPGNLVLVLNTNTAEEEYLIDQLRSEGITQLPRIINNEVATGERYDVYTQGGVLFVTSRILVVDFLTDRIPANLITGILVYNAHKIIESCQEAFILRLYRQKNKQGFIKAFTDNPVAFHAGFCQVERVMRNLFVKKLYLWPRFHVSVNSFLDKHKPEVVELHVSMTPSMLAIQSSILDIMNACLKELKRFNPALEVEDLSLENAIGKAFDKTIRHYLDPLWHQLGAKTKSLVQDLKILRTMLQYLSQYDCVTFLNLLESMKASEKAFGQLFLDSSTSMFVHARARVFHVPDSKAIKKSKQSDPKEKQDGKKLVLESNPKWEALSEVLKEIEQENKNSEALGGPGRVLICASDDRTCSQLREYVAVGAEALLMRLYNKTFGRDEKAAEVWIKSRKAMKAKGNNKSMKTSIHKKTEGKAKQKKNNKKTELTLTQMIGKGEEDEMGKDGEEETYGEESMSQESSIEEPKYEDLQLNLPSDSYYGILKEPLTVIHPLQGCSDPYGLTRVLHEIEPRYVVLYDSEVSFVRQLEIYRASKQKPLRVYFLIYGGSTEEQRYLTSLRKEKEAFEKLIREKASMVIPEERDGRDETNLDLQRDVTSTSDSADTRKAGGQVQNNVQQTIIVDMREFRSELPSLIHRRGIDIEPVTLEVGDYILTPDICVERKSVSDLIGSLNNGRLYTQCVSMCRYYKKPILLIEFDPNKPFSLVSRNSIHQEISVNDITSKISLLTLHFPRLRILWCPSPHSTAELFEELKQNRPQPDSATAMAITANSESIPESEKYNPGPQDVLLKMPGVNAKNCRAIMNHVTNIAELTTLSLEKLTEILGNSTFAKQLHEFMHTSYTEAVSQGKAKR
T1 sequence 2: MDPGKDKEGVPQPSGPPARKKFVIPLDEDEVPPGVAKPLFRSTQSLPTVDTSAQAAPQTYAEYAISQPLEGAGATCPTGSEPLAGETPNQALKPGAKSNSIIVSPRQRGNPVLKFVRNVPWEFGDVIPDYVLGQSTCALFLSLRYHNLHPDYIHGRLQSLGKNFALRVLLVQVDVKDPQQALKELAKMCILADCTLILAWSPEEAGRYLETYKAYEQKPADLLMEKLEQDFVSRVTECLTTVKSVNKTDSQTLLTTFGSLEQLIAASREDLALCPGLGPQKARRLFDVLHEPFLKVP

[2] = target: T2, XPF C225R;ERCC1 wild type (hsERCC1) (Xenopus laevis;Homo sapiens?, UniProt A0A8J0PXV9;P07992 1-897;1-297, C225R|); assay: as above; settings: protein: recombinant;recombinant; tags: FLAG;His; copies: 1;1; label: 5'-FAM on F1; three strands 1:1:1
T2 sequence 1: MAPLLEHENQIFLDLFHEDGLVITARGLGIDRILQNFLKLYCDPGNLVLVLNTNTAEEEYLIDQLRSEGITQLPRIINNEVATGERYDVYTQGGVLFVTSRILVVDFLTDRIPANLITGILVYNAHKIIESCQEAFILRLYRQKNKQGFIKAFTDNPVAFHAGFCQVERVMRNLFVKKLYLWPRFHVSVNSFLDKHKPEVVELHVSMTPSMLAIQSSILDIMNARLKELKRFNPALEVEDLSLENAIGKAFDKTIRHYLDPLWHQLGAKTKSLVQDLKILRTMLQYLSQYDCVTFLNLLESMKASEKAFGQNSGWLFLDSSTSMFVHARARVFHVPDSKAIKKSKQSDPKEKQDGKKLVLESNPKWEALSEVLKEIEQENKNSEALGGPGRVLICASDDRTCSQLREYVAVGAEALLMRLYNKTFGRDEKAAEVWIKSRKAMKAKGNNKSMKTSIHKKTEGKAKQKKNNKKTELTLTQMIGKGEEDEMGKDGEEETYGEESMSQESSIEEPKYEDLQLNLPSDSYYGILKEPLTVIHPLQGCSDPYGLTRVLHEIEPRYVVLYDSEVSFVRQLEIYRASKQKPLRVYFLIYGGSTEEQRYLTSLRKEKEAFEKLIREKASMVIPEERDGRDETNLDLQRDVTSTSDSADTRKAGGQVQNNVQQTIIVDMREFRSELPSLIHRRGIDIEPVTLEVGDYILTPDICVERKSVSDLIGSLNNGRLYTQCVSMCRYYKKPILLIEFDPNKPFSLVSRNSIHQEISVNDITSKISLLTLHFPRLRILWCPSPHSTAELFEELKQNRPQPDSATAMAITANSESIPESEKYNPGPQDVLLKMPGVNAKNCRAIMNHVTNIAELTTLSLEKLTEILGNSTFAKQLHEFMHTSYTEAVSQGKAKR
T2 sequence 2: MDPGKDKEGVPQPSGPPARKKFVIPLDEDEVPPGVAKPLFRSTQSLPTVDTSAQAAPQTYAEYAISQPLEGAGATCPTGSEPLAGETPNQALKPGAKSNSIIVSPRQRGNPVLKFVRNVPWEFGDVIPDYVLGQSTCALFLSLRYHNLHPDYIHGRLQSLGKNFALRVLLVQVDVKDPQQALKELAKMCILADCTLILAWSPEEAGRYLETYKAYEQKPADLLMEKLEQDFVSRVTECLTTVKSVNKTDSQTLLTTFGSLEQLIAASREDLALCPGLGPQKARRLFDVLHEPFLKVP

B1: 3' flap DNA substrate (F1+F2+F3) (dsDNA)
DNA 1: CGCGATGCGGATCCAA
DNA 2: CCTAGACTTAAGAGGCCAGACTTGGATCCGCATCGC
DNA 3: GGCCTCTTAAGTCTAGG
B1: binds [1]; binds [2].
